According to paper PMC7864079, “Molecular basis for histone H3 “K4me3-K9me3/2” methylation pattern readout by Spindlin1” (The Journal of Biological Chemistry, 2021):

Target: T1, Spindlin1_50–262 (Homo sapiens, UniProt Q9Y657)
T1 construct: The Spindlin1_50–262 samples were dialyzed against the buffer; GST (N, cleaved yes); made in house; host or cells: Escherichia coli BL21 (DE3)
Test: Thermal shift assay (TSA), Spindlin1_50–262 mixed with histone H3 peptides
Type: binding
Conditions: the row's label is the comparator peptide
Protocol: Recombinant proteins were overexpressed in Escherichia coli BL21 (DE3) strain. […] After cell lysis and centrifugation, the supernatant was loaded onto a GST affinity column and washed with lysis buffer. Then the bound proteins were subjected to on-column cleavage by PreScission Protease overnight. […] Purified peak fractions were concentrated to 25 mg/ml in 150 mM NaCl, 20 mM Tris, pH 8.0, aliquoted, and stored at −80°C for future use. The TSA was performed with a CFX96 real-time PCR instrument (Bio-Rad). […] All solutions were prepared in 25 µl of the same buffer (20 mM Hepes Na, pH 7.5, 150 mM NaCl) and incubated at 4°C for 1 h. During TSA assays, samples were heated from 25°C to 90°C at a rate of 0.5°C per minute. Protein denaturation progress was monitored by increased fluorescence signal of Sypro Orange, which captures the exposure of the protein hydrophobic core during thermal unfolding. Changes in the fluorescence signal were recorded and analyzed by the software CFX-Manager (Bio-Rad). When 50% of the protein is denatured, the folding and unfolding states of the protein are in dynamic equilibrium, and the corresponding temperature is the protein's melting temperature.

T1 sequence (Q9Y657 50-262): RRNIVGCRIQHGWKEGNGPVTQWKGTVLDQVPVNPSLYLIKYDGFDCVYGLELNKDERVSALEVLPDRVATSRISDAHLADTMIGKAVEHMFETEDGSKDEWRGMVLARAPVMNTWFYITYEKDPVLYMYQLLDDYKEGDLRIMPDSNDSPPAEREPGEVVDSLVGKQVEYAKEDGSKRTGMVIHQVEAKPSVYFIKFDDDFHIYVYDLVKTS

H3_1–20 K9me3: synthetic histone H3 residues 1–20 peptide with K9me3
amount by which the Tm with H3_1–20 “K4me3-K9me3” ([…]) is greater than the Tm with this peptide: 12.0 °C

unmodified H3_1–20: unmodified synthetic histone H3 residues 1–20 peptide
amount by which the Tm with H3_1–20 “K4me3-K9me3” ([…]) is greater than the Tm with this peptide: 15.0 °C
